# Assay results: patent US20230192765A1, “PEPTIDES TARGETING SHP2 AND USES THEREOF” (UNIVERSITÀ DEGLI STUDI DI ROMA "TOR VERGATA", priority 2020, published 2023)
# *1 amine or outer side, *2 acyl side, *3 side chain or, on linkers, in order; H or OH if unused. Where a SMILES comes first, the peptide text is derived from it. [ ]: non-standard residue; d: D form. 5,6‑carboxyfluorescein = CF, 5,6-carboxyfluorescein label; CF = 5,6-carboxyfluorescein, N-terminal label; pY = N[C@@H](Cc1ccc(OP(=O)(O)O)cc1)C(=O)O; Cysteamide = C(CS[*:3])N[*:1]
# B1: Cy3-P9W5 (Cy3-GLN-pY-IDLDW) (peptide)
# peptide: XGLNYIDLDW
# modifications: phosphotyrosine (pY) at position 4; N-terminal Cyanine 3 carboxylic acid (Cy3); C-terminal amide
# B2: CF-P9 (CF-GLN-pY-IDLDL), fluorescently labeled IRS-1 pY1172 peptide analog (peptide)
# peptide: {CF}-GLN[pY]IDLDL-NH2
# B3: CF-P9Y0 (CF-GLN-Y-IDLDL), unphosphorylated analog of the labeled IRS-1 pY1172 peptide (peptide)
# peptide: {CF}-GLNYIDLDL-NH2
# Tests used:
# [1] = tested on: NIH3T3 cells; experiment: Peptide toxicity in the cell uptake experiments (Sytox); format: cell-based; settings: Pep1 at 10 µM
# Experimental: Cell viability in the FACS experiment was determined by using Sytox fluorescence.
# Cells were incubated for different times and then washed, collected and stained with SYTOX blue (1 mM, Invitrogen™) to identify the viable population and the green fluorescence of CFP9W5 was recordered to measure peptide uptake. Data were analysed with Kaluza Analysis Software (Beckman Coulter).
# [2] = biological target: T1, SHP2 PTP domain (SHP2 construct lacking the N-SH2 domain) (Homo sapiens, UniProt Q06124); experiment: Malachite green phosphatase assay, dephosphorylation of phosphopeptides; format: biochemical; settings: phosphopeptide 100 µM; enzyme 95 nM
# T1 construct: the isolated PTP domain preceded by the C-SH2 domain (residues 105-528); His6 (esaHis); made in house; host or cells: E. coli (DE3) Rosetta2
# T1 sequence (Q06124 105-528): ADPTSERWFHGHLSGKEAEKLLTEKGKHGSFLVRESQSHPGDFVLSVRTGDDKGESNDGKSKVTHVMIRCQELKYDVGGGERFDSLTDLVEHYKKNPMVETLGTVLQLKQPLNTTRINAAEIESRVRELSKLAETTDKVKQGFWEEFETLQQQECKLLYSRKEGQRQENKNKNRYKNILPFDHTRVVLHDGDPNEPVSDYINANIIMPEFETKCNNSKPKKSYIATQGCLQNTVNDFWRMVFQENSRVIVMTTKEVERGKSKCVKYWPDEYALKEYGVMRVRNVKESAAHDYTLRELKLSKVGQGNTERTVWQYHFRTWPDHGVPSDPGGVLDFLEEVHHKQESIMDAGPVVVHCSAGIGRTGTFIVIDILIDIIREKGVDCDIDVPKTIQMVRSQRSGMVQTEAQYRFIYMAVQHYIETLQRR
# Experimental: A SHP2 construct lacking the N-SH2 domain (i.e. the first 104 residues) was used at a 95 nM concentration. Phosphopeptides were added at a 100 µM concentration and the phosphate released was measured at different times. From the linear region of the phosphate versus time curve, the variation in absorbance at 655 nm in 1 min, due to phosphate released, was calculated and plotted.
# The ability of SHP2 to dephosphorylate the phosphopeptides was evaluated through a malachite green phosphatase assay (PTP assay kit 1 Millipore, MA, USA). The BTAM peptide and the following monophosphorylated peptides derived from known SHP2 substrates were used for comparison: DKQVEpYLDLDL (SEQ ID NO:6) (GAB1Y657), EEENIpYSVPHD (SEQ ID NO:7) (p190A/RhoGAPY1105), and VDADEpYLIPQQ (SEQ ID NO:8) (EGFRY1016) (Primm) [Sun et al., 2009; Ren et al., 2011]. SHP2Δ104 or PTP (2.38 pmol) were incubated with 100 µM of each phosphopeptide (total volume 25 µl) for different times. The reaction was stopped by adding 100 µl of malachite green solution. After 15 min, absorbance was read at 655 nm using a microplate reader, and compared with a phosphate standard curve to determine the release of phosphate. Data obtained in the linear region of the curve were normalized on the reaction time (1 min).
# [3] = biological target: T2, N-SH2 domain of SHP2 (Homo sapiens, UniProt Q06124); experiment: Fluorescence anisotropy displacement assay; format: binding; settings: for effect of sequence length on the binding affinity: [CF-P9]=1.0 nM, [N-SH2]= 40 nM, relative to P9
# T2 construct: constructs of the N-SH2 (residues 2-111), C-SH2 (109-217) and PTP (212-528) domains; His6 (esaHis); made in house; host or cells: E. coli (DE3) Rosetta2
# T2 sequence (Q06124 2-111): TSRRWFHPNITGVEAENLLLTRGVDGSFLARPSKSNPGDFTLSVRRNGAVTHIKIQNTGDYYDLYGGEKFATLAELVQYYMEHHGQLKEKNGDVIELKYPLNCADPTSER
# [4] = biological target: T2, N-SH2 domain of SHP2; experiment: Fluorescence anisotropy direct binding assay, N-SH2 domain; settings: for standard free energy of binding: assuming a 1 M standard state
# Experimental: Anisotropy measurements were carried out using a Horiba Fluoromax 4 spectrofluorimeter.
# For the binding assays, the requested peptide amount (1 nM or 0.1 nM) was diluted in buffer (HEPES 10 mM, NaCl 150 mM, EDTA 1 mM, TCEP 1 mM, fluorescence buffer henceforth) and its anisotropy signal was recorded. The peptide was then titrated with increasing protein amounts, until the anisotropy signal reached a plateau at its maximum value, or up to a protein concentration where protein aggregation and consequent light scattering affected the anisotropy values (usually above 1 µM). The measurements of CF-labeled peptides were carried out using an excitation wavelength of 470 nm and collecting the anisotropy values at an emission wavelength of 520 nm. A 495 nm emission filter was used. For the Cy3-labeled peptides, excitation and emission wavelengths of 520 and 560 nm were used.
# The Kd values were obtained fitting the data with the following equation, described in Van der Weert 2011, which avoids the need for the commonly used (but often unjustified) approximation of the concentration of unbound protein with the total concentration:
# Here, [P]T and [L]T are the total protein and ligand concentrations, while r, ro and rmax are the anisotropy values at a given protein concentration, in the absence of protein and when the peptide is completely bound, respectively.
# [5] = biological target: N-SH2 domain of SHP2 (residues 2-111), recombinant (human) (UniProt Q06124); experiment: fluorescence anisotropy direct binding, labelled peptide titrated with protein
# [6] = biological target: C-SH2 domain of SHP2 (residues 109-217), recombinant (human) (UniProt Q06124); experiment: as above
# [7] = biological target: C-SH2 domain of SHP2 (residues 109-217), recombinant (human) (UniProt Q06124); experiment: fluorescence anisotropy direct binding
# [8] = tested on: protein array of 97 human SH2 domains; experiment: SH2 domain microarray; format: binding; settings: peptide 0.5, 5.0, 50 nM
# Experimental: (§1) The microarray experiment was conducted by the Protein Array and Analysis Core at the MD Anderson Cancer Center (University of Texas, USA), as previously described [Roth 2019]. Briefly, a library of SH2 domains [Huang 2008] was expressed as GST fusion in E. coli and purified on glutathione-sepharose beads. The domains were spotted onto nitrocellulose-coated glass slides (Oncyte Avid slides, Grace Bio-Labs) using a pin arrayer [Espejo 2002]. Each domain was spotted in duplicate.
# [9] = biological target: T3, N-SH2 domain of SHP1 (Homo sapiens, UniProt P29350); experiment: SH2 domain microarray, SHP1; format: binding; settings: peptide 0.5, 5.0, 50 nM
# T3 construct: host or cells: E. coli
# T3 sequence (P29350 4-100 limits assumed): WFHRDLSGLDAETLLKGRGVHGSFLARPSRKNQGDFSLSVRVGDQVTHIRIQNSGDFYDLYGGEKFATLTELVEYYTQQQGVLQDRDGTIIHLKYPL
# Experimental: as §1
# [10] = tested on: T4, P8W5 (LN-pY-IDLDW)
# T4 sequence: LNYIDLDW
# [11] = tested on: T5, P8 (LN-pY-IDLDL)
# T5 sequence: LNYIDLDL
# [12] = tested on: T6, GAB1 Y657 phosphopeptide (DKQVEpYLDLDL)
# T6 sequence: DKQVEYLDLDL
# [13] = tested on: T7, p190A/RhoGAP Y1105 phosphopeptide (EEENIpYSVPHD)
# T7 sequence: EEENIYSVPHD
# [14] = tested on: T8, EGFR Y1016 phosphopeptide (VDADEpYLIPQQ)
# T8 sequence: VDADEYLIPQQ
# [15] = tested on: T9, BTAM peptide (PTPNS1 bisphosphotyrosyl-containing motif, with 4 N-terminal G residues)
# T9 sequence: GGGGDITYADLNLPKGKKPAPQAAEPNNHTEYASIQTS
# [16] = biological target: T10, N-SH2 domain of SHP1, GST fusion on the SH2 domain microarray (human, UniProt P29350 1-106); experiment: SH2 domain microarray (GST fusions on nitrocellulose slides), Cy3 fluorescence
# T10 construct: domain: N-SH2 domain; Array of 97 human SH2 domains; not shown: GST fusion partner
# T10 sequence (looked up): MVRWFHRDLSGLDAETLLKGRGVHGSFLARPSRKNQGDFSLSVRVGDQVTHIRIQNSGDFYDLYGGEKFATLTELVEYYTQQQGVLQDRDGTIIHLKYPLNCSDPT
# [17] = biological target: T11, N-SH2 domain of SHP2 (residues 2-111), recombinant (human, UniProt Q06124 2-111); experiment: fluorescence anisotropy direct binding, labelled peptide titrated with protein
# T11 construct: range 2-111; Expressed in E. coli from pET-26b and purified on Ni-NTA
# T11 sequence (looked up): T2 sequence (Q06124 2-111)
# [18] = biological target: T11, N-SH2 domain of SHP2 (residues 2-111), …; experiment: fluorescence anisotropy direct binding
# Experimental: For the binding assays, the requested peptide amount (1 nM or 0.1 nM) was diluted in buffer (HEPES 10 mM, NaCl 150 mM, EDTA 1 mM, TCEP 1 mM, fluorescence buffer henceforth) and its anisotropy signal was recorded. The peptide was then titrated with increasing protein amounts, until the anisotropy signal reached a plateau at its maximum value, or up to a protein concentration where protein aggregation and consequent light scattering affected the anisotropy values (usually above 1 µM). The measurements of CF-labeled peptides were carried out using an excitation wavelength of 470 nm and collecting the anisotropy values at an emission wavelength of 520 nm. […] For the Cy3-labeled peptides, excitation and emission wavelengths of 520 and 560 nm were used.
molecule,measurement,setting,value
"CC(=O)N[C@@H](CCCCN)C(=O)N[C@@H](CCC(=O)O)C(=O)N[C@H](C(=O)N[C@@H](Cc1c[nH]c2ccccc12)C(=O)N[C@@H](Cc1c[nH]c2ccccc12)C(=O)N[C@@H](CCC(=O)O)C(=O)N[C@H](C(=O)N[C@@H](Cc1c[nH]c2ccccc12)C(=O)N[C@@H](Cc1c[nH]c2ccccc12)C(=O)N[C@H](C(=O)N[C@@H](CCC(=O)O)C(=O)N[C@@H](Cc1c[nH]c2ccccc12)C(=O)N[C@@H](CO)C(=O)N[C@@H](CCC(N)=O)C(=O)N1CCC[C@H]1C(=O)N[C@@H](CCCCN)C(=O)N[C@@H](CCCCN)C(=O)N[C@@H](CCCCN)C(=O)N[C@@H](CCCNC(=N)N)C(=O)N[C@@H](CCCCN)C(=O)N[C@H](C(=O)NCCS)C(C)C)[C@@H](C)O)[C@@H](C)O)[C@@H](C)O [Pep1, reference compound] (Ac-KETWWETWWTEWSQPKKKRKV-Cysteamide)",toxicity,[1],negligible
"CC[C@H](C)[C@H](NC(=O)[C@H](Cc1ccc(OP(=O)(O)O)cc1)NC(=O)[C@H](CC(N)=O)NC(=O)[C@H](CC(C)C)NC(C)=O)C(=O)N[C@@H](CC(=O)O)C(=O)N[C@@H](CC(C)C)C(=O)N[C@@H](CC(=O)O)C(=O)N[C@@H](CC(C)C)C(N)=O [Peptide P8, LN-pY-IDLDL] (Ac-LN[pY]IDLDL-NH2)",dephosphorylation by SHP2,[2],"dephosphorylation was indeed observed, although to a lower extent than for other phosphopeptides"
same,IC50,[3],0.047 ± 0.004 µM
same,Ki,[3],0.025 ± 0.004 µM
same,effect of sequence length on the binding affinity,[3],No significant loss in affinity
"CC[C@H](C)[C@H](NC(=O)[C@H](Cc1ccc(OP(=O)(O)O)cc1)NC(=O)[C@H](CC(N)=O)NC(=O)[C@H](CC(C)C)NC(C)=O)C(=O)N[C@@H](CC(=O)O)C(=O)N[C@@H](CC(C)C)C(=O)N[C@@H](CCC(=O)O)C(=O)N[C@@H](Cc1c[nH]c2ccccc12)C(N)=O [Peptide P8E4W5, LN-pY-IDLEW] (Ac-LN[pY]IDLEW-NH2)",IC50,[3],0.011 ± 0.001 µM
same,Ki,[3],0.005 ± 0.002 µM
"CC[C@H](C)[C@H](NC(=O)[C@H](Cc1ccc(OP(=O)(O)O)cc1)NC(=O)[C@H](CC(N)=O)NC(=O)[C@H](CC(C)C)NC(C)=O)C(=O)N[C@@H](CC(=O)O)C(=O)N[C@@H](CC(C)C)C(=O)N[C@@H](CC(=O)O)C(=O)N[C@@H](Cc1ccccc1)C(N)=O [Peptide P8F5, LN-pY-IDLDF] (Ac-LN[pY]IDLDF-NH2)",IC50,[3],0.016 ± 0.001 µM
same,Ki,[3],0.009 ± 0.002 µM
"CC[C@H](C)[C@H](NC(=O)[C@H](Cc1ccc(OP(=O)(O)O)cc1)NC(=O)[C@H](CC(N)=O)NC(=O)[C@H](CC(C)C)NC(C)=O)C(=O)N[C@@H](CC(=O)O)C(=O)N[C@@H](CC(C)C)C(=O)N[C@@H](CC(=O)O)C(=O)N[C@@H](Cc1c[nH]c2ccccc12)C(N)=O [Peptide P8W5, LN-pY-IDLDW]",dephosphorylation by SHP2,[2],"dephosphorylation was indeed observed, although to a lower extent than for other phosphopeptides"
"CF-GLN- Y-IDLDL ({5,6‑carboxyfluorescein}-GLNYIDLDL-NH2) [CF-P9Y0]",standard free energy of binding,[4],-29.6 ± 0.2 kJ/mol
same,affinity lower than phosphorylated peptide,[4]; unphosphorylated vs phosphorylated labeled peptide,approximately 100 times
"CF-GLN-pY-IDLDL ({5,6‑carboxyfluorescein}-GLN[pY]IDLDL-NH2) [CF-P9]",standard free energy of binding,[4],-41.6 ± 0.1 kJ/mol
CF-P9E4W5 (CF-GLN-pY-IDLEW) (peptide),Kd,[5],0.0082 µM
CF-P9W5 (CF-GLN-pY-IDLDW) (peptide),Kd,[5],0.0046 µM
same,Kd,[6],4.2 µM
same,fold lower affinity than for the N-SH2 domain,[7],1000 fold
Cy3-GLN-pY-IDLDW [Cy3-P9W5],Kd,"[4]; N-SH2 domain, direct binding",0.023 ± 0.002 µM
same,binding on SH2 domain array,[8],significant binding was observed only with the N-SH2 domain of SHP2
same,binding to N-SH2 domain of SHP1,[9],negligible
N-pY-IDLDL (Ac-N[pY]IDLDL-NH2; SMILES CC[C@H](C)[C@H](NC(=O)[C@H](Cc1ccc(OP(=O)(O)O)cc1)NC(=O)[C@H](CC(N)=O)NC(C)=O)C(=O)N[C@@H](CC(=O)O)C(=O)N[C@@H](CC(C)C)C(=O)N[C@@H](CC(=O)O)C(=O)N[C@@H](CC(C)C)C(N)=O) [Peptide P7],effect of sequence length on the binding affinity,[3],drastic perturbation of complex stability
"SHP2Δ104 (SHP2 construct lacking the N-SH2 domain, residues 105-528)",dephosphorylation of the phosphopeptide (malachite green phosphate release),[10],"dephosphorylation was indeed observed, although to a lower extent than for other phosphopeptides"
same,dephosphorylation of the phosphopeptide (malachite green phosphate release),[11],"dephosphorylation was indeed observed, although to a lower extent than for other phosphopeptides"
same,dephosphorylation of the phosphopeptide (malachite green phosphate release),[12],"dephosphorylation was indeed observed, although to a lower extent than for other phosphopeptides"
same,dephosphorylation of the phosphopeptide (malachite green phosphate release),[13],"dephosphorylation was indeed observed, although to a lower extent than for other phosphopeptides"
same,dephosphorylation of the phosphopeptide (malachite green phosphate release),[14],"dephosphorylation was indeed observed, although to a lower extent than for other phosphopeptides"
same,dephosphorylation of the phosphopeptide (malachite green phosphate release),[15],"dephosphorylation was indeed observed, although to a lower extent than for other phosphopeptides"
B1,Kd,[5],0.023 µM
same,binding result,[16],"no binding (tested: peptide at 0.5, 5.0 and 50 nM)"
B2,Kd,[17],0.053 µM
B3,Kd,[17],6.6 µM
same,fold lower affinity than the phosphorylated peptide CF-P9,[18],~100 fold
